From publication PMC5650626, “Deletion of MtrA Inhibits Cellular Development of Streptomyces coelicolor and Alters Expression of Developmental Regulatory Genes” come the findings set out here.

Data set [1] addresses T1, MtrA (MtrASCO) (Streptomyces coelicolor M145) (UniProt Q9KYW8).
T1 sequence: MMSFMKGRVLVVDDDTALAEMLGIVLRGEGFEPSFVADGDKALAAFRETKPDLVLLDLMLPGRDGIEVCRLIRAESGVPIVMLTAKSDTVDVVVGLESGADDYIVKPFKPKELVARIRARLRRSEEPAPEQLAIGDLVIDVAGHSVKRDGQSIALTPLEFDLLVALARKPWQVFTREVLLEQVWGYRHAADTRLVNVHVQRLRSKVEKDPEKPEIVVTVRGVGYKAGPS
Description: EMSA. The settings on record: EMSA: 20 mM Tris-HCl pH 8.0, 2 mM EDTA, 20 mM KCl, 0.5 mM DTT, 4% Ficoll-400, 2 ug poly(dI-dC), 50 fmol probe, 20 ul, room temperature 15 min; footprinting …. For orientation: Mobility shift assays separate free from complexed probe on a gel.

Data set [2] concerns the target T2, MtrA (MtrASCO) (Streptomyces coelicolor M145, UniProt Q9KYW8 1-229).
T2 sequence: T1 sequence
The data set is described as follows: EMSA; shift increases with MtrA; EMSA: 20 mM Tris-HCl pH 8.0, 2 mM EDTA, 20 mM KCl, 0.5 mM DTT, 4% Ficoll-400, 2 ug poly(dI-dC), 50 fmol probe, 20 ul, room temperature 15 min; footprinting 25 C, 30 min, 400 ng probe, 40 ul, poly(dI-dC). The settings on record: protein: recombinant; tags: His-tag (pET28a NdeI/HindIII; native stop codon in primer); chain copies: 2; label: biotin-11-UTP 3' end; blunt.

In data set [3] the target is T2, MtrA (MtrASCO). Description: EMSA; almost complete shift at 1.6 ug; EMSA: 20 mM Tris-HCl pH 8.0, 2 mM EDTA, 20 mM KCl, 0.5 mM DTT, 4% Ficoll-400, 2 ug poly(dI-dC), 50 fmol probe, 20 ul, room temperature 15 min; footprinting 25 C, 30 min, 400 ng probe, 40 ul, poly(dI-dC). The note with it: protein: recombinant; tags: His-tag (pET28a NdeI/HindIII; native stop codon in primer); chain copies: 2; label: biotin-11-UTP 3' end; blunt.

The target in data set [4] is T2, MtrA (MtrASCO). The data set is described as follows: EMSA; stronger than whiI-b; 2.1-6.3 ug MtrA; EMSA: 20 mM Tris-HCl pH 8.0, 2 mM EDTA, 20 mM KCl, 0.5 mM DTT, 4% Ficoll-400, 2 ug poly(dI-dC), 50 fmol probe, 20 ul, room temperature 15 min; footprinting 25 C, 30 min, 400 ng probe, 40 ul, poly(dI-dC). The settings on record: protein: recombinant; tags: His-tag (pET28a NdeI/HindIII; native stop codon in primer); chain copies: 2; label: biotin-11-UTP 3' end; blunt.

Data set [5] deals with T2, MtrA (MtrASCO). Description: EMSA; complete shift at lowest amount (1.6 ug); EMSA: 20 mM Tris-HCl pH 8.0, 2 mM EDTA, 20 mM KCl, 0.5 mM DTT, 4% Ficoll-400, 2 ug poly(dI-dC), 50 fmol probe, 20 ul, room temperature 15 min; footprinting 25 C, 30 min, 400 ng probe, 40 ul, poly(dI-dC). The settings on record: protein: recombinant; tags: His-tag (pET28a NdeI/HindIII; native stop codon in primer); chain copies: 2; label: biotin-11-UTP 3' end; blunt.

The target of data set [6] is T2, MtrA (MtrASCO). Description: EMSA; lower affinity than whiI-a; 2.1-6.3 ug MtrA; EMSA: 20 mM Tris-HCl pH 8.0, 2 mM EDTA, 20 mM KCl, 0.5 mM DTT, 4% Ficoll-400, 2 ug poly(dI-dC), 50 fmol probe, 20 ul, room temperature 15 min; footprinting 25 C, 30 min, 400 ng probe, 40 ul, poly(dI-dC). The note with it: protein: recombinant; tags: His-tag (pET28a NdeI/HindIII; native stop codon in primer); chain copies: 2; label: biotin-11-UTP 3' end; blunt.

Turning to “GGACATATGGCTCCCCGGACAAGGTGTCGACGCGGCAGGCTGTGTTGTCGGCCGCGCGGCTGGTAACTCACTGTGAGGTTACGCAGCGTTACTCTGCTGCGTCAAGCCGAATGGTCCGCACCGACTCTTCCGTGGTATTCGCCATCCATTACTCCGTGCGGGTGATCGATGTGGGGCAGAGGAGTGACGGGGGAGTGTCAGGGGGGTCATCGGAGAGGTTCTGTGAGCCTGCTACCGTAGGTGGCGCATATCCGACGTCCTTTAAGGTCCGTCCCGTGAGGC (double strand) [bldD upstream PCR probe (282 bp)]”, the binding entry in data set [1] is recorded as “binds”. Still for that read-out and setting: the entry for “CGTCAGGGATGCGTCAGGAGTGCGTCAGGGGTCCGAGAGGGGTCCGACCGAGGTGCGCCGGGGCCTTCATGCATGCCCCGTACGGCCCGTCGGGGCCCGCCACGGCGCAGGCTTCACCCGCTTAACCCTCCTGGTTCGCGGTCCCCGCGGGCACGGCCCACGATCGTGCTTACGCGACCGTCGCACCCCGCCGGCCTGGCGGGCGCCGCCGACGATCGCCCCAGTCCACGAGGATGACCGGAGAAGAGGTGGGCCGGATGACGGTCT (double strand) [whiE-ORF1 upstream PCR probe (267 bp)]” is “no binding”.

On to “CACCAGCCGTCGTTCATCGTTCCGGGCAGGGGGTCCGCACGTCCGGAGGAGGTTCCGTCACTTTGTCGACACGGCCACTTTCGGCCTCGTATCGACAAAGTGCGGAACCGTTCGATCTTCGAATGATCGACAGTGTGTCCGAATTGCTCGGATTGTTACTCACCAGATCGTGATCATTCTCTAAAGGCGGACGCGTTCGGTGCCGAAGACGACTGTGACCTTGAAAGCACGGTTCGTCCCGGCTTAAACCCCATGAGCCGGCCCCGTCCCCGCACCCCAGGAGGCCTGGTGTC (double strand) [whiI upstream PCR probe (293 bp)]”, for which, in data set [1], the binding result is reported as “binds”.

In the case of “GTCGTCCCCGATGGCAGGTGTAGGCCCCGCGGGTGCGTTCAGTGCCGTCACGGTTGATGCGGCAGCGGCCCGGCGTCGCGAACTTCCTTGACGTCGTGTGCCGTCGGCCGGCCGTCGCCGGCCGTGAGCCAGGGTTCTCCCGGGGCCGTGCTGCCCCTCCGTCTTTGTTCCCCTCGCGCGCTGCGAAAGACGTACGCCGTGCGAAGGCCGTCGGCTCCCGCACTCCCGACGACCTCCAACCTGTGAAATGGACGAATCATGACGA (double strand) [bldKA upstream PCR probe (265 bp)]”, the binding result in data set [1] is given as “no binding”.

B1: SCO3863 59bp (dsDNA)
DNA 1: CGCCCGACTATACACACCGGCCGATACCGATCGGTGACCTGCGTCGGCGGTCAACTGCC
DNA 2: GGCAGTTGACCGCCGACGCAGGTCACCGATCGGTATCGGCCGGTGTGTATAGTCGGGCG
For the molecule B1, the binding result with MtrA (MtrASCO) [2] is listed as “binds”.

B2: SCO5583 59bp (dsDNA)
DNA 1: ACGACGACCGGCCCCGGCCGTTCACCCACGCGTAACACGCACCGTGCCTTCGTCACGGC
DNA 2: GCCGTGACGAAGGCACGGTGCGTGTTACGCGTGGGTGAACGGCCGGGGCCGGTCGTCGT
As to B2, the binding result with MtrA (MtrASCO) [2] was “binds”.

B3: SCO3485 59bp (dsDNA)
DNA 1: ATGCCCGTTGTCGACCAGGCGTGTCACCGTATGGTAAACCGGTTATCTGTGACGCGCGG
DNA 2: CCGCGCGTCACAGATAACCGGTTTACCATACGGTGACACGCCTGGTCGACAACGGGCAT
As to B3, the binding result with MtrA (MtrASCO) [3] is listed as “binds”.

B4: SCO7458 59bp (dsDNA)
DNA 1: GGGCGACCGGTGGTCACCTGGTGTAACAGTCTTCTTATGATCTGTAGACGAAATGATCG
DNA 2: CGATCATTTCGTCTACAGATCATAAGAAGACTGTTACACCAGGTGACCACCGGTCGCCC
Regarding B4, in the data set with MtrA (MtrASCO) [2], the binding result is “binds”.

B5: whiI-a 59bp WT (SCO6029-a) (dsDNA)
DNA 1: GATCTGGTGAGTAACAATCCGAGCAATTCGGACACACTGTCGATCATTCGAAGATCGAA
DNA 2: TTCGATCTTCGAATGATCGACAGTGTGTCCGAATTGCTCGGATTGTTACTCACCAGATC
As to B5, the binding result in the data set with MtrA (MtrASCO) [4] is “binds”.

B6: SCO1489 (bldD) 59bp WT (dsDNA)
DNA 1: TGACGCAGCAGAGTAACGCTGCGTAACCTCACAGTGAGTTACCAGCCGCGCGGCCGACA
DNA 2: TGTCGGCCGCGCGGCTGGTAACTCACTGTGAGGTTACGCAGCGTTACTCTGCTGCGTCA
For the molecule B6, in the data set with MtrA (MtrASCO) [5], the binding result is listed as “binds”.

B7: whiI-b 59bp WT (SCO6029-b) (dsDNA)
DNA 1: TCACAGTCGTCTTCGGCACCGAACGCGTCCGCCTTTAGAGAATGATCACGATCTGGTGA
DNA 2: TCACCAGATCGTGATCATTCTCTAAAGGCGGACGCGTTCGGTGCCGAAGACGACTGTGA
With B7, in the data set with MtrA (MtrASCO) [6], the binding result is “binds”.

B8: SCO3561 59bp (dsDNA)
DNA 1: AATTACTCTCTATTTACTCGCTGTAATCGAACGGATACTCAGGAGACGGGAACATGTCA
DNA 2: TGACATGTTCCCGTCTCCTGAGTATCCGTTCGATTACAGCGAGTAAATAGAGAGTAATT
Consider B8, for which the binding result with MtrA (MtrASCO) [2] is “binds”.

B9: SCO1568 59bp (dsDNA)
DNA 1: CTCTGGGTGTGCGTGACTCACCTCACGGGGCGGTCACGTTCCTGCGGGGCGGTGGTCTG
DNA 2: CAGACCACCGCCCCGCAGGAACGTGACCGCCCCGTGAGGTGAGTCACGCACACCCAGAG
For B9, the binding result with MtrA (MtrASCO) [2] was “binds”.

B10: SCO1189 59bp (dsDNA)
DNA 1: CTCCCGCCGACCTCACGTGCCGGTTACAAATCGCTCAACCTCTGGTTGCGAAGCGGTGA
DNA 2: TCACCGCTTCGCAACCAGAGGTTGAGCGATTTGTAACCGGCACGTGAGGTCGGCGGGAG
Turning to B10, the binding result in the data set with MtrA (MtrASCO) [3] is recorded as “binds”.

B11: SCO2210 59bp (dsDNA)
DNA 1: GCCGCGCCACAACGAGCCCGGGTAACACGGGGTTCACCTACGGGCAACGGTCGGGAAAT
DNA 2: ATTTCCCGACCGTTGCCCGTAGGTGAACCCCGTGTTACCCGGGCTCGTTGTGGCGCGGC
B11: the binding result with MtrA (MtrASCO) [2] is “binds”.

B12: SCO2136 59bp (dsDNA)
DNA 1: TTCCGCCACAACTCACCTGCAGTGACGTCTTCCTGACACCACGTTGCGTGACGGTTCCG
DNA 2: CGGAACCGTCACGCAACGTGGTGTCAGGAAGACGTCACTGCAGGTGAGTTGTGGCGGAA
Turning to B12, the binding result with MtrA (MtrASCO) [2] was “binds”.

B13: SCO7434 59bp (dsDNA)
DNA 1: ATACCGGTCCGGTGTGTCTGCGTGACGGAGCGGTTACGGACAGCATCATGAGCTCTGCA
DNA 2: TGCAGAGCTCATGATGCTGTCCGTAACCGCTCCGTCACGCAGACACACCGGACCGGTAT
As for B13, the binding result with MtrA (MtrASCO) [2] is reported as “binds”.
